This note sets out measurements from ChEMBL document CHEMBL1152764, “Penicilliols A and B, novel inhibitors specific to mammalian Y-family DNA polymerases” (Bioorg Med Chem, 2009).

Substrate in data set [1]: C/C=C/C(=O)C1=C(OC)OC(C)(/C=C/C=C/C(C)O)C1=O
Briefly: Activity of mouse DNA polymerase iota using dTTP substrate at 15 uM by Lineweaver-Burke plot.

Substrate in data set [2]: C/C=C/C(=O)C1=C(OC)OC(C)(/C=C/C=C/C(C)O)C1=O
The data set can be described thus: Activity of mouse DNA polymerase iota using poly(dA/oligo(dT) substrate at 5 uM by Lineweaver-Burke plot.

Substrate in data set [3]: C/C=C/C(=O)C1=C(OC)OC(C)(/C=C/C=C/C(C)O)C1=O
Briefly: Activity of mouse DNA polymerase iota using poly(dA/oligo(dT) substrate at 10 uM by Lineweaver-Burke plot.

Substrate in data set [4]: C/C=C/C(=O)C1=C(OC)OC(C)(/C=C/C=C/C(C)O)C1=O
Briefly: Activity of mouse DNA polymerase iota using dTTP substrate at 10 uM by Lineweaver-Burke plot.

Substrate in data set [5]: C/C=C/C(=O)C1=C(OC)OC(C)(/C=C/C=C/C(C)O)C1=O
Briefly: Activity of mouse DNA polymerase iota using dTTP substrate at 5 uM by Lineweaver-Burke plot.

Substrate in data set [6]: C/C=C/C(=O)C1=C(OC)OC(C)(/C=C/C=C/C(C)O)C1=O
The data set can be described thus: Activity of mouse DNA polymerase iota using poly(dA/oligo(dT) substrate at 15 uM by Lineweaver-Burke plot.

B1: DNA polymerase iota (Mus musculus), Q6R3M4 (protein)
chain: MEPLHAGAAGSSRAVCSQGPPTQISSSRVIVHVDLDCFYAQVEMISNPELKDRPLGVQQKYLVVTCNYEARKLGVRKLMNVRDAKEKCPQLVLVNGEDLSRYREMSYKVTELLEEFSPAVERLGFDENFVDLTEMVEKRLQQLPSEEVPSVTVFGHVYNNQSVNLHNIMHRRLVVGSQIAAEMREAMYNQLGLTGCAGVAPNKLLAKLVSGVFKPNQQTVLLPESCQHLIHSLNHIKEIPGIGYKTAKRLEVLGINSVHDLQTFPIKTLEKELGIAIAQRIQQLSFGEDKSPVTPSGPPQSFSEEDTFKKCSSEVEAKAKIEELLSSLLTRVCQDGRKPHTVRLVIRRYSDKHCNRESRQCPIPSHVIQKLGTGNHDSMPPLIDILMKLFRNMVNVKMPFHLTLMSVCFCNLKALSSAKKGPMDCYLTSLSTPAYTDKRAFKVKDTHTEDSHKEKEANWDCLPSRRIESTGTGESPLDATCFPKEKDTSDLPLQALPEGVDQEVFKQLPADIQEEILYGKSRENLKGKGSLSCPLHASRGVLSFFSTKQMQASRLSPRDTALPSKRVSAASPCEPGTSGLSPGSTSHPSCGKDCSYYIDSQLKDEQTSQGPTESQGCQFSSTNPAVSGFHSFPNLQTEQLFSTHRTVDSHKQTATASHQGLESHQGLESRELDSAEEKLPFPPDIDPQVFYELPEEVQKELMAEWERAGAARPSAHR
On to B1, for which the maximum rate (Vmax) (in general, the rate approached at saturating substrate) in data set [1] came to 22.5 pmol/h; in data set [2], 31.1 pmol/h; in data set [3] it was 20 pmol/h; in data set [4], 27.6 pmol/h; in data set [5] it was 35.7 pmol/h; in data set [6] it was 14.8 pmol/h.
